Earlier results, collected in PMC7736282.

Target: Lys175 (UniProt position 175, VASSLKWRCPF)
Experiment: NMR

VP39, cap-specific mRNA (nucleoside-2'-O-)-methyltransferase / poly(A) polymerase small subunit (Vaccinia virus)
pKa: 8.5
